# Patent US20260108606A1, “TREATMENT OF AUTOIMMUNE DISEASES HAVING A PATHOGENIC T CELL STATE” (THE BRIGHAM AND WOMEN'S HOSPITAL, INC., priority 2023, published 2026)
# B1: IL-23: a cytokine critical for inducing pathogenic Th17 cells (protein, UniProt Q9NPF7 20-189; P29460 23-328, looked up)
# Interleukin-23 subunit alpha: RAVPGGSSPAWTQCQQLSQKLCTLAWSAHPLVGHMDLREEGDEETTNDVPHIQCGDGCDPQGLRDNSQFCLQRIHQGLIFYEKLLGSDIFTGEPSLLPDSPVGQLHASLLGLSQLLQPEGHHWETQQIPSLSPSQPWQRLLLRFKILRSLQAFVAVAARVFAHGAATLSP
# Interleukin-12 subunit beta: IWELKKDVYVVELDWYPDAPGEMVVLTCDTPEEDGITWTLDQSSEVLGSGKTLTIQVKEFGDAGQYTCHKGGEVLSHSLLLLHKKEDGIWSTDILKDQKEPKNKTFLRCEAKNYSGRFTCWWLTTISTDLTFSVKSSRGSSDPQGVTCGAATLSAERVRGDNKEYEYSVECQEDSACPAAEESLPIEVMVDAVHKLKYENYTSSFFIRDIIKPDPPKNLQLKPLKNSRQVEVSWEYPDTWSTPHSYFSLTFCVQVQGKSKREKKDRVFTDKTSATVICRKNASISVRAQDRYYSSSWSEWASVPCS
# Columns and labels:
# Format in all cases: cell-based, mouse
# CD4+ T cells = experiment: Glycolytic rate assay using Seahorse (ECAR); details: WT cells differentiated with IL-1β+IL-6 with or without IL-23 (FIG. 12G)
# From the text: FIG. 12A-12K—TCF1 deficiency obviates the need for IL-23 for Th17 pathogenicity. (FIG. 12A) Schematic view of in vitro differentiation with IL-1b and IL-6 for adoptive transfer experiments. (FIG. 12B-12D) CNS-infiltrating immune cells (FIG. 12B-12C) or immune cells from draining lymph nodes (dLN) (FIG. 12D) were harvested from mice at peak of disease (EAE score 1-5) and analyzed by flow cytometry. (FIG. 12B) Summary data of the frequency of Foxp3+ cells within the 2D2 cell population infiltrating the CNS (WT n=11; KO n=12). (FIG. 12C) Summary data of cytokine production by host CD4+ T cells infiltrating the CNS (WT n=10; KO n=12). (FIG. 12D) Summary data of the frequency of SLAMF6+ and CXCR6+ cells within 2D2+ cells in the dLN of recipients of 2D2 TCF1 WT (n=8) and TCF1cKO (n=10) cells. […] (FIG. 12I-12J) CNS-infiltrating 2D2 cells were harvested and FACS-sorted from mice at peak of disease (EAE score 1-5) and analyzed by confocal microscopy. […]
# Th17 pathogenicity is driven by IL-23 and has been associated with increased glycolytic activity and lipid metabolism, which in turn, supply crucial sterol ligands to boost RORγt transcriptional activity. […] The disclosure further assessed the intra-cellular lipid content of 2D2 TCF1 WT and 2D2 TCF1cKO cells isolated from the CNS of p19^−/− mice.
# Tcf7 locus = Tcf7 locus reporter (Tcf7-GFP) activity in Th17 cells; details: CD4 T cells of Tcf7 locus reporter strain, IL-1β+IL-6 with or without IL-23 for 3 days, then 2 days of rest (FIG. 8C)
# Procedure: (§1) Single-cell suspension were prepared from spleen and lymph nodes, and CD4 T cells isolated using the anti-CD4 microbeads (Miltenyi, catalogue #130-117-043). Subsequently, naïve CD4 T cells (CD62L^+ CD44^− CD25^−) were enriched through fluorescence activated cell sorting (FACS) performed on a BD FACSAria Ilu. Naïve CD4 T cells were activated for 3 days with 1 ug/ml of plate-bound anti-CD3 (BioXcell, BP0001) and anti-CD28 (BioXcell, BE0015), plus the addition of 20 ng/ml of IL-1B (R&D Systems), 25 ng/ml of IL-6 (R&D Systems), 20 ng/ml of IL-23 (R&D Systems), 20 ug/ml of anti-IFNγ (BioXcell, BE0055) and 20 μg/ml of anti-IL4 (BioXcell, BE0045) for pathogenic Th17; 2 ng/ml of TGFβ1, 25 ng/ml of IL-6, 20 μg/ml of anti-IFN and 20 μg/ml of anti-IL4 for non-pathogenic Th17. Cells were then rested in un-coated plates in absence of anti-CD3/anti-CD28 stimulation for 2 days. For some experiments, cells were re-stimulated with 1 ug/ml of anti-CD3/anti-CD28 for 1-2 days.
# (§2) Single-cell suspensions were firstly stained to discriminate live cells with UV Zombie (Biolegend) in PBS, and then in FACS buffer (2% bovine serum albumin in PBS) with antibodies for surface antigens. […] Fully stained samples were read either at a BD LSRFortessa or BD FACSymphony. The data were analyzed with FlowJo software (TreeStar) and GraphPad Prism software (GraphPad).
# TCF1 = experiment: Th17 in vitro differentiation, TCF1 and RORγt expression by flow cytometry
# Procedure: as §1, §2
molecule,measurement,setting,value
B1,glycolysis (extracellular acidification rate; ECAR),CD4+ T cells,increased glycolysis
same,Tcf7 locus reporter activity,Tcf7 locus,significantly decreased
same,TCF1 protein expression,"TCF1; naïve CD4+ T cells differentiated with IL-1β and IL-6 for 2 days, then increasing doses of IL-23, dose-dependent (FIG. 1F)",decreased significantly
same,proportion of TCF1lo RORγt hi cells,"TCF1; pTh17 differentiated for 3 days, then fresh IL-23 added in the culture media (FIG. 8D)",increased proportion
